Test results from the supplement of paper PMC12042874.
± gives the uncertainty stated by the source.

Assay: amyloid nucleation score (Sup35N fusion, yeast selection) (log enrichment); library NNK3; higher = more nucleation; inactive = no reads after selection
In short: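 Using DiMSum, nucleation scores were taken as the log enrichment of output over input reads, centred on the mode score of non-aggregating sequences. The input and output reads came from Illumina sequencing of plasmid inserts, with sequences under 100 input reads excluded. The yeast were psi-negative, expressed Sup35N fused to peptides of 20 random codons, were induced with 100 μM copper sulfate for 24 hours, and were grown 7 days at 30°C on medium lacking adenine and uracil.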

Substance: CLFYLCRARMMFNWPSCTRG
- amyloid nucleation score: 0.933 ± 0.22

Substance: CLGGHLTHLHL
- amyloid nucleation score: inactive

Substance: CLGPKCATKDIFL
- amyloid nucleation score: inactive

Substance: CLGVSNTYHWSYRRIFRYRF
- amyloid nucleation score: inactive

Substance: CLISLDHIFLPSWNTGICIL
- amyloid nucleation score: inactive

Substance: CLISQFVY
- amyloid nucleation score: inactive

Substance: CLKTFVFMTDTRG
- amyloid nucleation score: 1.47 ± 0.12

Substance: CLMPLSDN
- amyloid nucleation score: inactive

Substance: CLRVICCFWKRPGFDWYLEM
- amyloid nucleation score: inactive

Substance: CLSMSLAKLGVIYL
- amyloid nucleation score: 0.724 ± 0.21

Substance: CLYLYVRLRYSLVSSSHPFL
- amyloid nucleation score: inactive

Substance: CMFLGSELCWRRPRGS
- amyloid nucleation score: 0.443 ± 0.32

Substance: CMFSLV
- amyloid nucleation score: inactive

Substance: CMFYLLVSLPWVAVTSVLRV
- amyloid nucleation score: inactive

Substance: CMLSPV
- amyloid nucleation score: inactive

Substance: CMPFMR
- amyloid nucleation score: inactive

Substance: CMYKTFHFDY
- amyloid nucleation score: inactive

Substance: CNCRKRLVWSFGYMNISMYL
- amyloid nucleation score: inactive

Substance: CNDFNSYVRCYIMSNNFFRY
- amyloid nucleation score: inactive

Substance: CNFQYILCRIM
- amyloid nucleation score: 2.15 ± 0.057

Substance: CNGFTVGWPWGRRLRDPPGH
- amyloid nucleation score: -0.598 ± 2.4

Substance: CNIISQTRGHEISQCGSWMW
- amyloid nucleation score: inactive

Substance: CNWMIPASSP
- amyloid nucleation score: inactive

Substance: CPCMLMMFSVGLTSSSPILC
- amyloid nucleation score: 0.268 ± 0.44

Substance: CPFHIIHKQSLRKMMSTWEA
- amyloid nucleation score: inactive

Substance: CPFLILIFGYPK
- amyloid nucleation score: inactive

Substance: CPVRGPKVVIQCMMLSILTV
- amyloid nucleation score: inactive

Substance: CPYLLNVIMWAIFRSANFVA
- amyloid nucleation score: inactive

Substance: CQFVKVMCLHSYILRPSPPP
- amyloid nucleation score: inactive

Substance: CQNLATRSFKALPLRSLCTC
- amyloid nucleation score: inactive

Substance: CQSLLSGRFTGKSFEIT
- amyloid nucleation score: inactive

Substance: CQVMSNFCNGMPQTQFGVGS
- amyloid nucleation score: inactive

Substance: CQYFLSWRASVC
- amyloid nucleation score: inactive

Substance: CRCDFFDSKAAPIGGGNNVL
- amyloid nucleation score: inactive

Substance: CRCNVSLGILFKRGMSKRRI
- amyloid nucleation score: 1.01 ± 0.11

Substance: CRCRFLAVWWNSVGYNDGVG
- amyloid nucleation score: inactive

Substance: CRENKEYIQGSDTLNFHYPM
- amyloid nucleation score: inactive

Substance: CRGGNFRPMEGATVNPLFEG
- amyloid nucleation score: inactive

Substance: CRGYADFT
- amyloid nucleation score: inactive

Substance: CRRVDFGSLSRFMGSGFNVD
- amyloid nucleation score: inactive

Substance: CRSEYYAF
- amyloid nucleation score: inactive

Substance: CRSIWITPGNYAFALSFLMR
- amyloid nucleation score: inactive

Substance: CRTTRLTLNGVIVGNAGFSI
- amyloid nucleation score: inactive

Substance: CRVFDYFSLRVYVTVRYSLF
- amyloid nucleation score: inactive

Substance: CRWGNVIYFFTR
- amyloid nucleation score: 1.45 ± 0.12

Substance: CRYLICVGS
- amyloid nucleation score: inactive

Substance: CRYNVIYWGIDSCYHMWSWR
- amyloid nucleation score: inactive

Substance: CSAFAYRSSWRFAWNTIFDY
- amyloid nucleation score: inactive

Substance: CSAYNLSYHGGRDVRCRNTF
- amyloid nucleation score: inactive

Substance: CSCIGWLRNGDVSCNVDRAS
- amyloid nucleation score: inactive

Substance: CSFGRS
- amyloid nucleation score: inactive

Substance: CSGHYLFILLGFDTYNGEVF
- amyloid nucleation score: inactive

Substance: CSHYFNVYTLRCISSIGDS
- amyloid nucleation score: inactive

Substance: CSISSKIFLLLMNWLCWSCG
- amyloid nucleation score: inactive

Substance: CSLGLLMVQRERC
- amyloid nucleation score: 1.38 ± 0.098

Substance: CSNSGFTGENRVARLPRDGG
- amyloid nucleation score: inactive

Substance: CSNVRPLD
- amyloid nucleation score: inactive

Substance: CSQNT
- amyloid nucleation score: inactive

Substance: CSRSKNNTFRHSLWFHRYYA
- amyloid nucleation score: inactive

Substance: CSSKKRDV
- amyloid nucleation score: inactive

Substance: CSSSYMGQDHVFVSDSARCS
- amyloid nucleation score: inactive

Substance: CSVGVAVGMIG
- amyloid nucleation score: inactive

Substance: CSYILVFSNSFFFHAHSTWV
- amyloid nucleation score: inactive

Substance: CSYYFQLNMVSKECPRS
- amyloid nucleation score: 0.562 ± 0.14

Substance: CTDIICMIRFVVLDMRGAN
- amyloid nucleation score: 0.981 ± 0.12

Substance: CTECDNSFRPLKNRDTYTAR
- amyloid nucleation score: 0.046 ± 0.27

Substance: CTGSWMVTAERLARACHTRL
- amyloid nucleation score: inactive

Substance: CTHEFTTRHLICFRFSKLVY
- amyloid nucleation score: inactive

Substance: CTSAKIICHQSMRTRCTEQD
- amyloid nucleation score: inactive

Substance: CTSQVDT
- amyloid nucleation score: inactive

Substance: CTTDRGVVLWVCRNG
- amyloid nucleation score: inactive

Substance: CVDCRGESAHLLIARWFMRR
- amyloid nucleation score: 0.387 ± 0.38

Substance: CVDYKRMNGFKCTLDVFRAI
- amyloid nucleation score: 0.184 ± 0.61

Substance: CVEVWLPYFFLSMS
- amyloid nucleation score: inactive

Substance: CVGGSVFVACMLRSRVWGWC
- amyloid nucleation score: inactive

Substance: CVGYMGLGALEYIVNAHGGI
- amyloid nucleation score: inactive

Substance: CVNLRNIRFSTLRGMGGWI
- amyloid nucleation score: inactive

Substance: CVNTIFTRRFWNEGSIPAGL
- amyloid nucleation score: inactive

Substance: CVQLKSTSHVYYFRDQVGLD
- amyloid nucleation score: 1.41 ± 0.087

Substance: CVRNENRSGS
- amyloid nucleation score: -0.974 ± 2.5

Substance: CVSDLCSW
- amyloid nucleation score: inactive

Substance: CVSEKQWLSVVVELVFWGCG
- amyloid nucleation score: -0.821 ± 1.3

Substance: CVVDNRRCLFLYWSLVSFNW
- amyloid nucleation score: 1.18 ± 0.13

Substance: CWRCFSAD
- amyloid nucleation score: 0.041 ± 0.6

Substance: CWSRMNSVDAIYK
- amyloid nucleation score: inactive

Substance: CWVVHGNNRVHGHMLGLRAI
- amyloid nucleation score: inactive

Substance: CYFTASCLWMNANIDVSLSK
- amyloid nucleation score: inactive

Substance: CYGKTGSCFSVLHGWGGFVM
- amyloid nucleation score: inactive

Substance: CYMFRDDRIVYHDGLNRHCK
- amyloid nucleation score: inactive

Substance: CYNDRFFIVSIYRDQ
- amyloid nucleation score: 1.07 ± 0.1

Substance: CYSFLWALRGMEF
- amyloid nucleation score: inactive

Substance: CYWTYVRLSSVFRDHIVALT
- amyloid nucleation score: inactive

Substance: DALIRY
- amyloid nucleation score: inactive

Substance: DAPSFLSMSRFAFYNFNLYW
- amyloid nucleation score: 1.29 ± 0.12

Substance: DCKINIGVVVSLGACLSWSE
- amyloid nucleation score: 1.65 ± 0.084

Substance: DCSSNVRTSCWNHRSYHVVY
- amyloid nucleation score: inactive

Substance: DCYMDLSRQFRNRCGLASFY
- amyloid nucleation score: inactive

Substance: DCYRGVSLCELFDECR
- amyloid nucleation score: inactive

Substance: DDIYKEVDRWKNWYRRLKHT
- amyloid nucleation score: inactive

Substance: DDRSP
- amyloid nucleation score: inactive

Substance: DEAMEDFEWRRMGLV
- amyloid nucleation score: inactive

Substance: DEFEMLLEGWVSVVGMMTRE
- amyloid nucleation score: inactive

Substance: DEKIGGTVKYGVVQAYV
- amyloid nucleation score: inactive

Substance: DERKPVGSHDGYSYVSVVTR
- amyloid nucleation score: inactive

Substance: DFDFQIYC
- amyloid nucleation score: 0.507 ± 0.25

Substance: DFDNLFYTTLNSQFPRTRFV
- amyloid nucleation score: inactive

Substance: DFGVGN
- amyloid nucleation score: inactive

Substance: DFKILKVHKSRSSNSGSEDW
- amyloid nucleation score: inactive

Substance: DFLVPIKARNYCLNVGPNTY
- amyloid nucleation score: inactive

Substance: DFPIGYHHNVMI
- amyloid nucleation score: inactive

Substance: DFRLLWVQTMSFCLNYQAKL
- amyloid nucleation score: inactive

Substance: DFSKVNDQTADSYMWCSVDS
- amyloid nucleation score: inactive

Substance: DFSNILLGTNQNNAVSAGSG
- amyloid nucleation score: inactive

Substance: DFSSCCDHPFIVI
- amyloid nucleation score: 0.346 ± 0.75

Substance: DFSYRENYVPIDGIRLTVFW
- amyloid nucleation score: inactive

Substance: DGCVEELWRGRVLMKMFTHS
- amyloid nucleation score: inactive

Substance: DGGYFGNSWFIHGDSLFQMG
- amyloid nucleation score: inactive

Substance: DGHKCCTG
- amyloid nucleation score: inactive

Substance: DHNARSVCTSNHSMAKRMFG
- amyloid nucleation score: inactive

Substance: DHVLNRPYYDNNLKYYDTWL
- amyloid nucleation score: inactive

Substance: DIAREVCSTCLKV
- amyloid nucleation score: inactive

Substance: DIDTLYTTIEKCFEDIT
- amyloid nucleation score: inactive

Substance: DIELLGKARGYSLEQG
- amyloid nucleation score: inactive

Substance: DIEYEY
- amyloid nucleation score: inactive

Substance: DIFGKRRLCI
- amyloid nucleation score: inactive

Substance: DIFWYTASNYYIIYNAYYPA
- amyloid nucleation score: 0.709 ± 0.14

Substance: DIMLYSWITCIMSSAPPRDN
- amyloid nucleation score: 1.74 ± 0.11

Substance: DIRYLNNFDSCQYGRGFLAA
- amyloid nucleation score: inactive

Substance: DISKFNDSLSPSELSGLIFS
- amyloid nucleation score: inactive

Substance: DITAG
- amyloid nucleation score: inactive

Substance: DITRMVNNKFIWSSVSGLAC
- amyloid nucleation score: inactive

Substance: DIVIFVEVNHWFLMGMSHKT
- amyloid nucleation score: 0.999 ± 0.088

Substance: DKFMWVGNSCVHSD
- amyloid nucleation score: inactive

Substance: DKGFINCVSGSGDHVTCGGS
- amyloid nucleation score: inactive

Substance: DKRDNMYICVCRYCHETWCI
- amyloid nucleation score: -0.397 ± 0.66

Substance: DKTCKVDWMSFTSHDF
- amyloid nucleation score: inactive

Substance: DKVIHVAGFKVIDCHSSRIR
- amyloid nucleation score: inactive

Substance: DKWFMSVPIISTRICGGCLG
- amyloid nucleation score: inactive

Substance: DLFDSRVVSSDAVSCYYAAS
- amyloid nucleation score: inactive

Substance: DLFISPKFVQ
- amyloid nucleation score: inactive

Substance: DLFWLGFNWHLGCRFYVGAN
- amyloid nucleation score: inactive

Substance: DLHVWLGVKQ
- amyloid nucleation score: inactive

Substance: DLKWNVRHGCISKTARGFVT
- amyloid nucleation score: inactive

Substance: DLLQVLPCVLDSYGARAVRC
- amyloid nucleation score: inactive

Substance: DLLWLLFGLTSDLQFFIRYK
- amyloid nucleation score: inactive

Substance: DLLYYLRSCDFCCCMDTS
- amyloid nucleation score: inactive

Substance: DLNIKYMVWACTSVRDCRYY
- amyloid nucleation score: 1.01 ± 0.085

Substance: DLNLVMSSGSRDRLNSLLRR
- amyloid nucleation score: inactive

Substance: DLPVGLWKQESLSAGMYNSW
- amyloid nucleation score: inactive

Substance: DLRLFFRRRGISQLDC
- amyloid nucleation score: 0.356 ± 0.26

Substance: DLVVNGSFNTDTCFETVSVH
- amyloid nucleation score: inactive

Substance: DMIYMLVAFARFIYLDTCIR
- amyloid nucleation score: inactive

Substance: DMQHPFDFKRQ
- amyloid nucleation score: inactive

Substance: DNARCSLHFYNSCWISVWKY
- amyloid nucleation score: inactive

Substance: DNAVVEEYIIEVAKSFWTDG
- amyloid nucleation score: inactive

Substance: DNDQNGVREVERGVLTLSSV
- amyloid nucleation score: inactive

Substance: DNEEKLIGRSL
- amyloid nucleation score: inactive

Substance: DNKLDNRYLGYRFRCTTFHF
- amyloid nucleation score: inactive

Substance: DNKSL
- amyloid nucleation score: inactive
